Legend:
Assay in all cases: SEC
[1] = biological target: S2P-1208.H8 (ancestral Hu-1) (SARS CoV-2 (ancestral Hu-1 isolate)) (UniProt P0DTC2)
[2] = biological target: S2P.OmiBA1-FHA (SARS CoV-2 (Omicron BA.1) | bacteriophage T4)
[3] = biological target: S2P.OmiBA1-1208.H8 (SARS CoV-2 (Omicron BA.1))
[4] = biological target: S2P.OmiBA.4/5-1208.H8 (SARS CoV-2 (Omicron BA.4/5))

Work on “S2P-1208.H8 (ancestral Hu-1) (from UniProt P0DTC2 16-1208) (domain or fragment)” yielded a stoichiometry N [1] of 2.
S2P.OmiBA1-FHA (domain or fragment) was tested, and the stoichiometry N [2] was 3.
For S2P.OmiBA1-1208.H8 (domain or fragment), the percent dissociated to dimer after a freeze-thaw cycle [3] was 15% and the stoichiometry N [3] was 3.
“S2P.OmiBA.4/5-1208.H8 (domain or fragment)” gave a stoichiometry N [4] of 3.

Reference: doi:10.1101/2022.11.08.515567
